Data: article PMC11882963 (Nature Communications, 2024)
Numbering of substitutions follows the chain as printed.

Columns and labels:
MntR D27A [1] = target: T1, MntR D27A (Bacillus subtilis, UniProt P54512 1-142, D27A); assay: FSEC
T1 sequence: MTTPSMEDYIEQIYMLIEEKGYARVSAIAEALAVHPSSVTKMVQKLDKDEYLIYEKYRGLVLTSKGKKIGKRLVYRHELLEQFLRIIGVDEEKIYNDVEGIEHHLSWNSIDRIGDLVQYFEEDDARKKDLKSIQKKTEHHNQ

MntR WT [2] = target: T2, MntR WT (Bacillus subtilis, UniProt P54512 1-142); assay: FSEC
T2 sequence: T1 sequence with A27D

MntR Y22A [3] = target: T3, MntR Y22A (Bacillus subtilis, UniProt P54512 1-142, Y22A); assay: FSEC
T3 sequence: T1 sequence with Y22A, A27D

MntR Y22A [4] = target: T3, MntR Y22A; assay: mass photometry
MntR WT [5] = target: T2, MntR WT; assay: mass photometry
MntR D27A [6] = target: T1, MntR D27A; assay: mass photometry
MntR D27A [7] = target: T1, MntR D27A; assay: mass photometry; remark: listed apart in the source
MntR WT [8] = target: T2, MntR WT; assay: cryo-EM
MntR WT [9] = target: T2, MntR WT; assay: FSEC; remark: listed apart in the source
mass photometry = target: the molecule itself; assay: mass photometry

B1: P26 (mneP site 1) (dsDNA)
DNA 1: CAACGTTGCTATAGACCCACTCGAAA
DNA 2: TTTCGAGTGGGTCTATAGCAACGTTG
binding result (MntR D27A [1]): no binding
binding result (MntR WT [2]): no binding
binding result (MntR Y22A [3]): no binding

B2: C84 (four consensus MntR sites) (dsDNA)
DNA 1: CCTTTTTTGCCTTAAGGAAACTTTTTTGCCTTAAGGAAACTTATTTGCCTTAAGGAAACTACTTTGCCTTAAGGAAACTCGAAG
DNA 2: CTTCGAGTTTCCTTAAGGCAAAGTAGTTTCCTTAAGGCAAATAAGTTTCCTTAAGGCAAAAAAGTTTCCTTAAGGCAAAAAAGG
binding result (MntR Y22A [4]): binds
binding result (MntR WT [5]): binds
binding result (MntR D27A [6]): binds

B3: P84 (mneP regulatory region) (dsDNA)
DNA 1: CCTTTTTAGCATAGCTCCAACTTTTTTTCTGTCACCTTATTTATTAGTAAACAGGAAACAACGTTGCTATAGACCCACTCGAAG
DNA 2: CTTCGAGTGGGTCTATAGCAACGTTGTTTCCTGTTTACTAATAAATAAGGTGACAGAAAAAAAGTTGGAGCTATGCTAAAAAGG
binding result (MntR D27A [7]): binds
binding result (MntR WT [8]): binds

B4: H26 (mntH operator) (dsDNA)
DNA 1: GATAATTTGCCTTAAGGAAACTCTTC
DNA 2: GAAGAGTTTCCTTAAGGCAAATTATC
binding result (MntR WT [9]): binds
binding result (MntR D27A [1]): binds
binding result (MntR Y22A [3]): binds

B5: Bacillus subtilis MntR, wild type (natural protein)
chain: T1 sequence with A27D
stoichiometry N (mass photometry): 2
